Experimental data reported in FireProtDB (doi:10.1016/0022-2836(92)90906-z).

B1: Ribonuclease, P00648 (parent)
chain: MMKMEGIALKKRLSWISVCLLVLVSAAGMLFSTAAKTETSSHKAHTEAQVINTFDGVADYLQTYHKLPDNYITKSEAQALGWVASKGNLADVAPGKSIGGDIFSNREGKLPGKSGRTWREADINYTSGFRNSDRILYSSDWLIYKTTDHYQTFTKIR

Variants of: B1
Conditions: Bacillus amyloliquefaciens; pH 6.3; 25 °C; Urea; Fluorescence; MES 1.00 M; NaCl 613 mM; reversible: yes; structure 1BNI; whole UniProt chain shown

Variant | ddG of mutation (higher = less stable) | denaturant m value | denaturant midpoint (higher = more stable) | unfolding free energy
G81K | 11.3 kJ/mol | 2.06 kcal/mol/M | 2.97 M | 25.5 kJ/mol
G81N | 11.3 kJ/mol | 1.94 kcal/mol/M | 3.16 M | 25.5 kJ/mol
G81S | 12.1 kJ/mol | 2.03 kcal/mol/M | 2.93 M | 24.7 kJ/mol
G81T | 13.4 kJ/mol | 1.96 kcal/mol/M | 2.84 M | 23.4 kJ/mol
